Reference: patent US20080214462

Biological target: factor X (FX) (UniProt P00742)
Chain of UniProt P00742 (P00742 whole entry, looked up): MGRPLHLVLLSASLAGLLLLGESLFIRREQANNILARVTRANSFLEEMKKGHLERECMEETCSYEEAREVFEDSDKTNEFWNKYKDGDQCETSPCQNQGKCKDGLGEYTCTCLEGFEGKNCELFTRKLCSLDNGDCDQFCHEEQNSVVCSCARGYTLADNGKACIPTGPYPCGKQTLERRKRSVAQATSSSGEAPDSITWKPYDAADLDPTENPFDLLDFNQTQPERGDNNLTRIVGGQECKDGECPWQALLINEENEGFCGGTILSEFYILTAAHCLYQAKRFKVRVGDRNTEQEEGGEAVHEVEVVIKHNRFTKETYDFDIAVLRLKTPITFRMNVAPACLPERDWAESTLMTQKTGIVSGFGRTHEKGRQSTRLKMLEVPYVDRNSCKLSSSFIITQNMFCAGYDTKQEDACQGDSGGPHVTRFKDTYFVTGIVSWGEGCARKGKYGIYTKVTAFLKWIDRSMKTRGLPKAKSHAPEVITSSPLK

activated plasma derived FIX (pdFIXa)
aPTT in FIX-depleted plasma: pdFIXa equivalent activity given for 0.5 µg/mL of FIXa protein: 1.1 µg/mL
